The values that follow come from US9822148B2, “EGFR-binding peptide” (HOYA CORPORATION, priority 2012, dated 2017).

One assay has as its target T1, rhEGFR (Homo sapiens, UniProt P00533).
T1 construct: purchased R&D Systems
The assay is described as follows: Competition test between phage and synthetic peptide on solid phase rhEGFR. The format is binding. The note with it: for binding of the I-1010 phage to a rhEGFR (ratio of an input titer/output titer) on adding the peptide: peptide added at each concentration, up to 100 μM. The method, then:
A rhEGFR that is a target protein was added to a 96-well microplate to be 1 μg/well, and stood still at 4° C. overnight to be thus formed into a solid phase. A protein solution was removed, 300 μl of a blocking buffer was added and the mixture was incubated at 37° C. for 1 hour to thus block the wells. After removal of the blocking buffer, the wells were washed three times with 200 μl of 0.5% TBST washing solution, and finally 100 μl of 0.5% TBST was added thereto. […] A reaction only of the I-1010 phage without adding both of the peptides was employed as a control. […] In the reaction, the mixture was gently shaken at room temperature for 1 hour. The reaction solution was removed and the wells were washed with 200 μl of 0.5% TBST ten times. 100 μl of 0.2 M glycine-HCl (pH 2.2) was then added to the wells and stirred by pipetting, thereafter gently shaking at room temperature for 10 minutes. The eluate was collected to a microtube from the wells and added with 15 μl of 1M Tris-HCl (pH 9.1) to be neutralized and a target binding phage solution was thus obtained. The binding ability of the collected phage was examined by a measurement of a titer.

Another assay has as its system A-431 cells. Put plainly: In vitro imaging with FITC labeled peptide, confocal microscope, A-431 cells. As to conditions: 100 μM FITC labeled peptide, 37° C., 1 hour. The format is cell-based, human. The method, then:
A-431 cells were inoculated in a glass bottom dish to be 20×10^4 cells/dish and MCF7 cells were inoculated in a glass bottom dish to be 75×10^4 cells/dish, and cultured at 37° C. in the condition of CO2 for 24 hours. After culturing each kind of the cells for a specified time, EGF was added to have a concentration of 100 ng/mL and the mixture was cultured for 6 days. Thereafter, the culture solution in the dish was removed and washed with 1000 μL of a growth medium at 37° C. ten times. An aminocaproic acid linker was connected to an N terminal of a peptide and the peptide in which FITC was labeled in the opposite side of the connected linker (Pep055-F, Pep032-F ([…] (peptide irrelevant to binding to EGFR): SEQ ID No. 54)) (purity 80.6%, HPLC grade, AnyGen, Korea) was prepared to be 100 μM in a growth medium, and 1 mL of the medium was added and incubated at 37° C. for 1 hour. A staining fluid was removed and washed with 1 mL of a growth medium at 37° C. three times and thereto was finally added 1 mL of the medium. For observation, fluorescent observation was carried out by irradiating an exciting light laser with a wavelength of 488 nm using a confocal microscope (Leica SP2).

[1] abbreviates: I-1010 phage 1×10^10 PFU, FIG. 6.

Where no end group is shown, it is not given here. The star is where a group is joined. FITC = O=C1OC2(c3ccc(O)cc3Oc3cc(O)ccc32)c2ccc(NC(=S)*)cc21; Ahx = NCCCCCC(=O)O

“GAASRTYLHELI (Random peptide) [Pep018, reference compound]”: in the assay with rhEGFR (setting [1]), the “binding of the I-1010 phage to a rhEGFR (ratio of an input titer/output titer) on adding the peptide” value was “maintained”.
On to “Pep055-F: Pep055 with an aminocaproic acid linker at the N terminal, labeled with FITC ({FITC-Ahx}-WHLSDLWQNAWH)”, for which the “stainability of A-431 cells” value in the assay with A-431 cells was “Staining of the cytoplasm of the A-431 cells was observed”.
On to “Pep055: synthetic peptide obtained by artificially synthesizing the I-1010 phage displayed peptide (SEQ ID No. 2) (WHLSDLWQNAWH; I-1010)”, for which, in the assay with rhEGFR (setting [1]), the “peptide concentration from which the ratio of an input titer/output titer of the I-1010 phage dropped” value is at least 1 µM and the “binding of the I-1010 phage to a rhEGFR (ratio of an input titer/output titer) on adding the peptide” value is listed as “inhibited concentration-dependently”.
As for “Pep056: synthetic peptide (SEQ ID No. 4) of the I-1012 phage displayed peptide (FHDWLPEVSPPD; I-1012)”, in the assay with rhEGFR (FIG. 7), the “binding of the I-1012 phage to EGFR on adding the peptide” value is recorded as “inhibit”.
As for “Pep057: synthetic peptide (SEQ ID No. 7) of the I-1015 phage displayed peptide (LHQSEWMYVDIH; I-1015)”, in the assay with rhEGFR (FIG. 8), the “binding of the I-1015 phage to EGFR on adding the peptide” value is “inhibit”.
As to “YLPLWRLSESHM ({FITC-Ahx}-YLPLWRLSESHM) [Pep032-F, reference compound]”, the “stainability of A-431 cells” value with A-431 cells is “scarcely stained”.
